For data set [1], the system named is HT-29 cells (human colon cancer cell line). As to the kind of experiment: In-vitro anti-cancer drug screening, cell counting (SRB) assay. It counts as cell-based. The settings on record: concentration required to inhibit net cell growth by 50%. The protocol:
A study was carried out to determine the ability of example dendrimers to inhibit growth of HT-29 cells (human colon cancer cell line) using a cell counting (SRB) assay.

Data set [2] is described as follows: plasma release study (SN-38 release in rat plasma). The note with it: 37° C. It counts as in vitro ADME.
The nature of data set [3]: SN-38 release from dendrimers in 9:1 PBS/DMA at 37° C. and pH 7.4. It counts as physicochemical. The settings on record: SN-38 released, pH 7.4, 1 mg/mL dendrimer. The protocol:
A study was carried out to determine the rate of SN-38 release from certain dendrimeric compounds in 9:1 PBS (phosphate-buffered saline): DMA at 37° C. and pH 7.4.
The PBS release study was conducted by preparing 1 mg/mL solutions of dendrimer in 9:1 v/v (PBS/DMA) immediately prior to incubation at 37° C. Samples were analysed at 6 h and 18 h and other timepoints by HPLC, comparing the % peak area of SN-38 to the % peak area of dendrimer construct. HPLC (C8 Xbridge, 3×100 mm), gradient: 5% ACN/H2O (0-1 min), 5-80% ACN (1-7 min), 80% ACN (7-12 min), 80-5% ACN (12-13 min), 5% ACN (13-15 min), 243 nm, 10 mM ammonium formate buffer, 0.4 mL/min.

Data set [4] concerns SW620 (human colon carcinoma cell line) xenograft. As to the kind of experiment: Efficacy in SW620 xenograft model in mice. The settings on record: irinotecan 90 mg/kg.
Data set [5] concerns HT-29 (human colon carcinoma cell line) xenograft. As to the kind of experiment: Efficacy in HT-29 xenograft model in mice. It counts as in vivo, Balb/c nude mice.
Data set [6] has the same test system. As to the kind of experiment: Efficacy alone or in combination with olaparib in HT-29 xenograft model in mice. It counts as in vivo, Balb/c nude mice. The protocol: Olaparib solid powder obtained from MedChemExpress was solubilised in DMSO and an oral formulation was prepared at a final concentration of 5 mg/ml in 10% DMSO: 15% (2-Hydroxypropyl)-β-cyclodextrin in sterile water.
The endpoint for the analysis was a tumour volume of 1200 mm^3.
Statistical analysis of tumour growth was performed on day 28 when the first study animals reached endpoint criteria for tumour burden.

Here are results for 5 molecules from patent US12514853B2, “Therapeutic dendrimer” (Starpharma Pty Ltd, priority 2018, dated 2026).

Read-outs that look alike come from different tables or passages of the source.

Broadly, the GI50 is the concentration at which growth is held to half of that of the control. A high value points to lower sensitivity of the cells. In the case of “BHALys[Lys]32[α-TDA-C20-Irinotecan]32†[ε-PEG˜2100]32‡ [Dendrimer 2k]”, in data set [1], the GI50 was found to be 46 µM. This counts as double-digit micromolar.
Consider “BHALys[Lys]32[α-Glu-C20-SN-38]32†[ε-PEG˜2300]32‡ [Dendrimer 2b]”, for which the “% SN-38 released” value was found to be 0.93% in data set [2] (0.5 h); 1.27% in data set [2] (2 h); 1.94% in data set [2] (4 h); 2.73% in data set [2] (6 h); 12.17% in data set [2] (22 h). In data set [3], the “% Release at 6 h in 9:1 PBS/DMA at 37° C.” value turned out to be 0%. Further, the “% Release at 18 h in 9:1 PBS/DMA at 37° C.” value in data set [3] is 3%.
On to “BHALys[Lys]32[α-THF-C20-SN-38]32†[ε-PEG˜2300]32‡ [Dendrimer 2i]”, for which the “effect on SW620 tumour growth” value in data set [4] (2f 15, 2i 15, 2h 25, 2a 25 mg/kg IV days 1, 8, 15, study to day 119) is “induce regression of SW620 tumours”. Moreover, the tolerability result in data set [4] (2f 15, 2i 15, 2h 25, 2a 25 mg/kg IV once weekly for three weeks) is “well tolerated” and the tolerability result (2f 15 mg/kg, 2i 15 mg/kg, 2h 25 mg/kg, 2a 30 mg/kg SN-38 equivalents, IV once weekly for three weeks) is “well tolerated”. Besides, the “Max. body weight loss (%)” value (15 mg/kg SN-38 equivalents IV once weekly for 3 weeks) is on record as 8%, the “Max. body weight loss (%)” value (20 mg/kg SN-38 equivalents IV once weekly for 3 weeks) is on record as 15% and the “Max. body weight loss (%)” value (30 mg/kg SN-38 equivalents IV once weekly for 3 weeks) was found to be 15%. Also, the “% Release at 6 h in 9:1 PBS/DMA at 37° C.” value in data set [3] is 40%. The “% Release at 18 h in 9:1 PBS/DMA at 37° C.” value in data set [3] is listed as 60%. In addition, in data set [5] (2f 15, 2i 15, 2h 25 mg/kg SN-38 equivalents IV once weekly), the “effect on HT-29 tumour growth” value is on record as “induce transient regression of HT-29 tumours”. The Tumour growth inhibited in data set [5] (day 36, vs vehicle, irinotecan 90 mg/kg, 2f 15, 2i 15, 2h 25 mg/kg IV) was 103%.
Molecule “BHALys[Lys]32[α-DGA-C20-Irinotecan]32†[ε-PEG˜2300]32‡ [Dendrimer 2j]” registered a GI50 in data set [1] of 12 µM.
Regarding `O=C(c1cc(Cc2n[nH]c(=O)c3ccccc23)ccc1F)N1CCN(C(=O)C2CC2)CC1` [Olaparib, reference compound], in data set [6] (day 28, olaparib 50 mg/kg orally 5 days on/2 days off for 3 weeks, irinotecan 80 mg/kg IV days 1, 8, 15), the “Percent TGI” value was 0%. Besides, the “effect on HT-29 tumour growth (in words)” value in data set [6] (olaparib 50 mg/kg orally, irinotecan 80 mg/kg IV, their combination, 2f 5 and 8 mg/kg IV) was “no effect on tumour growth”.
